Reference: patent US5612190

Target: group I phospholipase A2
Test: 125I-PLA2-I binding in COS7 culture supernatant, polyethylene glycol coprecipitation

Kd: 0.8 nM
B1: secretion type PLA2-I receptor protein (receptor)
chain: ETAAWAVTPERLREWQDKGIFIIQSENLEKCIQASKSTLTLENCKPPNKYMLWKWVSNHRLFNIGGSGCLGLNVSSPEQPLSIYECDSTHVSLKWHCNKKTITGPLQYLVQVKQDNTLVASRKYLHKWVSYMSGGGGICDYLHKDLYTIKGNAHGTPCMFPFQYNQQWHHECTREGREDNLLWCATTSRYERDEKWGFCPDPTSTEVGCDAVWEKDLHSRICYQFNLLSSLSWSEAHSSCQMQGAALLSIADETEENFVRKHLGSEAVEVWMGLNQLDEDAGWQWSDRTPLNYLNWKPEINFEPFVEYHCGTFNAFMPKAWKSRDCESTLPYVCKKYLNPTDHGVVEKDAWKYYATHCEPGWNPHNRNCYKLQKEKKTWNEALQSCQSNNSVLTDITSLAEVEFLVTLLGDENASETWIGLSSHKIPVSFEWSNGSSVTFTNWHTLEPHIFPNRSQLCVSAEQSEGHWKVKNCEETLFYLCKKTGLVLSDTESGCQKGWERHGKFCYKIDTVLRSFDHASSGYYCPPALITITSRFEQAFITSLISSVVKTKDTYFWIALQDQNNTGEYTWKTAGQQLEPVKYTHWNTRQPRYSGGCVVMRGRSHPGRWEVRDCRHFKAMSLCKQPVENREKTKQEEGWPFHPCYLDWESEPGLASCFKVFHSEKVLMKRTWRQAEEFCEEFGAHLASFAHIEEENFVNELLHSKFNRTEERQFWIGFNKRNPLNAGSWEWSDGTPVVSSFLDNSYFGEDARNCAVYKANKTLLPSYCGSKREWICKIPRDVRPKVPPWYQYDAPWLFYQDAEYLFHISASEWSSFEFVCGWLRSDILTIHSAHEQEFIHSKIRALSKYGVNWWIGLREERASDEFRWRDGSPVIYQNWDKGKERSMGLNESQRCGFISSITGLWASEECSISMPSICKRKKVWVIEKKKDIPKQHGTCPKGWLYFDYKCLLLKIPEGPSDWKNWTSAQDFCVEEGGTLVAIENEVEQAFITMNLFGHTTNVWIGLQDDDYEKWLNGRPVSYSNWSPFDTKNIPNHNTTEVQKRIPLCGLLSNNPNFHFTGKWYFEDCREGYGFVCEKMQDASGHSINTSDMYPIPNTLEYGNRTYKIINANMTWYTALKTCLMHGAELASITDQYHQSFLTVILNRVGYAHWIGLFTEDNGLSFDWSDGTKSSFTFWKDDESSFLGDCVFADTSGRWSSTACESYLQGAICQVPTETRLSGRLELCSETSIPWIKFKSNCYSFSTVLESTSFEAAHEFCKKKGSNLLTIKDEAENSFLLEELLAFRSSVQMIWLNAQFDGDNETIKWFDGTPTDQSNWGIRKPEVYHFKPHLCVALRIPEGVWQLSSCQDKKGFICKMEADIHTVKKHPGK
